Results on two molecules are retold here after US20020045205A1, “Method for autoactivation of procaspase 8” (priority 1998, published 2002).

Substrate in data set [1]: CC(=O)N[C@@H](CC(=O)O)C(=O)N[C@@H](CCC(=O)O)C(=O)N[C@H](C(=O)N[C@@H](CC(=O)O)C(=O)Nc1ccc([N+](=O)[O-])cc1)C(C)C
Kind of data set: Substrate Km in caspase 8 enzyme assay. As to conditions: other: 100 mM sodium phosphate/10 mM Tris/100 mM DTT, pH 7.50, 37° C., pH 7.5. The data set is classed as biochemical, human. How it is done:
Unless otherwise indicated, all specific enzyme activity measurements described herein were made using the Ac-DEVD-pNA substrate. […] Initial rates were determined as follows: 100 μl of 1M DTT, 790 μl 100 mM sodium phosphate/10 mM Tris, pH 7.50, and 10 μl of caspase 8 sample solution (for protein concentrations near 0.5 mg/ml) were added to a quartz semi-micro cuvette.

The nature of data set [2]: Cleavage of chromogenic and fluorogenic caspase substrates. The data set is classed as biochemical, human. To be noted: substrates Ac-DEVD-pNA, Ac-IETD-pNA, Ac-DEVD-AMC. The text has this: Enzyme activity of caspase 8 preparations was monitored using the chromogenic substrates Ac-DEVD-pNA or Ac-IETD-pNA or the fluorogenic substrates Ac-DEVD-AMC or Ac-IETD-AMC. For the chromogenic substrates, kinetic release of para-nitroaniline (pNA) was followed at 405 nm using either a Lambda 6 spectrophotometer or in a microtitre plate format using a Molecular Devices Thermomax plate reader with 405 nm wavelength filter. Kinetic enzyme assays monitoring the release of 7-amino-4-methyl-coumarin from the fluorogenic substrates were conducted using a Molecular Devices fmax plate reader with Ex=355 nm and Em=460 nm.

B1: caspase 8 (Homo sapiens) (protein)
chain 1: SPREQDSESQTLDKVYQMKSKPRGYCLIINNHNFAKAREKVPKLHSIRDRNGTHLDAGALTTTFEELHFEIKPHDDCTVEQIYEILKIYQLMDHSNMDCFICCILSHGDKGIIYGTDGQEAPIYELTSQFTGLKCPSLAGKPKVFFIQACQGDNYQKGIPVETD
chain 2: LSSPQTRYIPDEADFLLGMATVNNCVSYRNPAEGTWYIQSLCQSLRERCPRGDDILTILTEVNYEVSNKDDKKNMGKQMPQPTFTLRKKLVFPSD
notes: the 19 kDa peptide (S ^18PREQD . . . IPVETD^181); the 11 kDa chain (L^192SSPQ . . . LVFPSD^286); (His)6 (MRGS(H)6 leader, 12-residue prosegment from pQE30) (N, cleaved yes); made in house; host or cells: E. coli M15 (pREP4), vector pQE30
Broadly, the Km is the substrate concentration at which the rate is half of its maximum. As for B1, in data set [1], the Michaelis constant (Km) came out at 167 µM.

B2: Concentrated, but unprocessed, protein: recombinant procaspase 8 polypeptide lacking the DED prodomain, with (His)6 tag, SEQ ID NO:1 (protein, listed as Homo sapiens)
chain: MRGSHHHHHHGSMTISDSPREQDSESQTLDKVYQMKSKPRGYCLIINNHNFAKAREKVPKLHSIRDRNGTHLDAGALTTTFEELHFEIKPHDDCTVEQIYEILKIYQLMDHSNMDCFICCILSHGDKGIIYGTDGQEAPIYELTSQFTGLKCPSLAGKPKVFFIQACQGDNYQKGIPVETDSEEQPYLEMDLSSPQTRYIPDEADFLLGMATVNNCVSYRNPAEGTWYIQSLCQSLRERCPRGDDILTILTEVNYEVSNKDDKKNMGKQMPQPTFTLRKKLVFPSD
modifications: (His)6 tag
B2: the “activity against caspase substrates” value in data set [2] is on record as “no measurable activity”.
